Data taken from patent publication US20030113325A1 (CHILDREN S MEDICAL CENTER, published 2003).
One block for each binder: values may come before it.

Assays:
[1] = target: T1, AP (UniProt P05187 23-511, limits assumed); assay: coimmunoprecipitation of GST or GST-NgR with AP or AP-OMgp
T1 construct: Control in the coimmunoprecipitation; also called alkaline phosphatase; AP alone
From the text: (§1) We next took advantage of AP-OMgp binding to identify cell surface OMgp-binding proteins by expression cloning (He & Tessier-Lavigne, 1997; Flanagan and Cheng, 2000; Fournier et al., 2001). Pools of a complementary DNA expression library from adult human brain, representing approximately 250,000 independent clones, were transfected into COS-7 cells and screened for the presence of cells that bound AP-OMgp. […] After screening several rounds of subpools, we isolated two cDNAs that encoded the OMgp-binding proteins. […] We next performed coimmunoprecipitation experiments by incubating GST or a GST-NgR fusion protein containing the entire extracellular domain of NgR (GST-NgR) with AP or AP-OMgp.

[2] = target: T2, Nogo-66 receptor (NgR), full-length, expressed on transfected cells (human, UniProt Q9BZR6 27-447); assay: saturation analysis of AP-OMgp binding to N2A cells transfected with NgR cDNA, bound AP activity
T2 construct: whole, on cells; The species of the NgR on the CHO cells is not restated; also called Nogo receptor
T2 sequence (looked up): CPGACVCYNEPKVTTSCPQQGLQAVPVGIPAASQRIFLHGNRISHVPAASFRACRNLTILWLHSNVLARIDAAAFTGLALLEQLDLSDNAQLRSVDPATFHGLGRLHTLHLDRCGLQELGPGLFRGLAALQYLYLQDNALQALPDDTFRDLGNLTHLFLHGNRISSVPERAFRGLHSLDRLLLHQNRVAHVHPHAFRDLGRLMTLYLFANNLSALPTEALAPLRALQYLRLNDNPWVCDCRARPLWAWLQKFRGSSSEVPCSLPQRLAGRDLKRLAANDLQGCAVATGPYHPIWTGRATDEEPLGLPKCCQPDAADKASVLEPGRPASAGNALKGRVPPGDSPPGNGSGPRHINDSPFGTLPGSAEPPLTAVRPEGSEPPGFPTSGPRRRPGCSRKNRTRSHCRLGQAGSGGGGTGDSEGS
From the text: as §1
Cell surface binding and expression cloning were performed as described previously (He and Tessier-Lavigne, 1997). To detect AP-OMgp binding, cultures were washed with binding buffer (Hanks balanced salt solution containing 20 mM Hepes, pH 7.5, and 1 mg/ml bovine serum albumin (BSA)). The plates were then incubated with AP-OMgp-containing binding buffer for 75 min at room temperature. After extensive washing and heat inactivation, bound AP fusion proteins were detected by AP staining using NBT and BCIP as substrate. For saturation analysis, we disrupted cells and detected bound AP fusion proteins using […] as substrate.

T1 sequence (P05187 23-511 limits assumed): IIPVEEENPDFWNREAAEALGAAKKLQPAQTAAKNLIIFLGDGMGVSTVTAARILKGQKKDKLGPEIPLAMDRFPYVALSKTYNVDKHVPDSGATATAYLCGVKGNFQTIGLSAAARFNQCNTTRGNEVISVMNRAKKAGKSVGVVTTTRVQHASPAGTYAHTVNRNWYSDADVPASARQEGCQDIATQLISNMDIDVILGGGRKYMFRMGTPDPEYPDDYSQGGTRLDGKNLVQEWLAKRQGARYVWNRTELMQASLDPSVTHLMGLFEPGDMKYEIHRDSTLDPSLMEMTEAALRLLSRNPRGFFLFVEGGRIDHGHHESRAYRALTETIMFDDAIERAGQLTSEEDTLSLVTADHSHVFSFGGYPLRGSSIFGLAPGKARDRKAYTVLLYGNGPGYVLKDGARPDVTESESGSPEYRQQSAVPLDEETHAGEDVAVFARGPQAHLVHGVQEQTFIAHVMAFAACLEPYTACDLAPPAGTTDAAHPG

binding result [1]: no binding
B1: GST-NgR fusion protein containing the entire extracellular domain of NgR (receptor, UniProt Q9BZR6 27-447, looked up)
chain: T2 sequence (looked up)
notes: extracellular domain; not shown: glutathione S-transferase (GST) fusion partner

Kd [2]: 5 nM
B2: AP-OMgp fusion protein (ligand, mouse, UniProt Q63912 25-417, looked up)
chain: ICPLQCTCTERHRHVDCSGRNLTTLPPGLQENIIHLNLSYNHFTDLHNQLTPYTNLRTLDISNNRLESLPAQLPRSLWNMSAANNNIKLLDKSDTAYQWNLKYLDVSKNMLEKVVLIKNTLRSLEVLNLSSNKLWTVPTNMPSKLHIVDLSNNSLTQILPGTLINLTNLTHLYLHNNKFTFIPEQSFDQLLQLQEITLHNNRWSCDHKQNITYLLKWVMETKAHVIGTPCSKQVSSLKEQSMYPTPPGFTSSLFTMSEMQTVDTINSLSMVTQPKVTKTPKQYRGKETTFGVTLSKDTTFSSTDRAVVAYPEDTPTEMTNSHEAAAATLTIHLQDGMSSNASLTSATKSPPSPVTLSIARGMPNNFSEMPRQSTTLNLRREETTANGNTRPPS
notes: Secreted from COS-7 cells and purified on nickel-agarose; about 180 kDa; The order of the parts follows the name AP-OMgp; not shown: alkaline phosphatase (AP) reporter of expression vector AP-5 (Flanagan and Cheng, 2000)
